Data on one substance can be found in patent publication CN116355095A.

Assay [1] deals with 恒河猴TIGIT-mFc (rhesus monkey; mouse). Kind of assay: ELISA on coated RhTIGIT-mFc.
Assay [2] concerns the target 人TIGIT-hFc (human) (UniProt Q495A1). Kind of assay: blocking ELISA: Bio-CD155 on coated TIGIT-hFc.
Assay [3] shares this target. Kind of assay: blocking ELISA: Bio-CD155 on coated TIGIT-hFc. This is another data set of the same source.
Assay [4] addresses T1, CHO-K1-T1001细胞表达的人TIGIT (human) (UniProt Q495A1).
T1 sequence (looked up): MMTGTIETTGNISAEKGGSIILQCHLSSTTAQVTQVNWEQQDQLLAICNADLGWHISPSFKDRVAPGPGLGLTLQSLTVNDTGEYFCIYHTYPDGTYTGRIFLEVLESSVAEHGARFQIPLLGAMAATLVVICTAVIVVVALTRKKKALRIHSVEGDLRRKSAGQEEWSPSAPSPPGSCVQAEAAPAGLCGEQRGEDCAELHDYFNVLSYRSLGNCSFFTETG
The assay is described as follows: cell ELISA on fixed hTIGIT+ CHO-K1 cells.

Assay [5] addresses T2, 人TIGIT重组蛋白 (hTIGIT; TIGIT-hFc 或 TIGIT-his) (human) (UniProt Q495A1).
T2 sequence (looked up): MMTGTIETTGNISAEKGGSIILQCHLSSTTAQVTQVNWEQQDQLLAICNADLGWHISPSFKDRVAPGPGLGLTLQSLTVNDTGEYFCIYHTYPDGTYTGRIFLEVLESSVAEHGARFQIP
Kind of assay: ELISA on coated hTIGIT.

In assay [6] the target is T2, 人TIGIT重组蛋白 (hTIGIT; TIGIT-hFc 或 TIGIT-his) (human). The assay is described as follows: ELISA on coated hTIGIT. The source holds these as a separate data set.
Assay [7] addresses T1, CHO-K1-T1001细胞表达的人TIGIT (human). The assay is described as follows: cell ELISA on fixed hTIGIT+ CHO-K1 cells. This is another data set of the same source.

Read-outs that look alike come from different tables or passages of the source.

Chain of 恒河猴TIGIT-mFc (rhesus monkey; mouse) (P01863 other isoform, or with tags, fused parts or gaps): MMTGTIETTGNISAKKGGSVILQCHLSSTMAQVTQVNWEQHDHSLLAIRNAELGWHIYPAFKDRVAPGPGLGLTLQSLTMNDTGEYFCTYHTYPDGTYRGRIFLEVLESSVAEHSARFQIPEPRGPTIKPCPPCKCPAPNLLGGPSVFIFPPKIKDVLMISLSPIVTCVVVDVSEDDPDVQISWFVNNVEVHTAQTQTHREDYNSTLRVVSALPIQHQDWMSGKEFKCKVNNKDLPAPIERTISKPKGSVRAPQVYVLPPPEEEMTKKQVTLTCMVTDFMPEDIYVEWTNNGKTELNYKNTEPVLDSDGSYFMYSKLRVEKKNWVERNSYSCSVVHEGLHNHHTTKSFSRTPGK

Take 阳性对照抗体Ref1 (罗氏RG6058) (antibody): the half-maximal effective concentration (EC50) turned out to be 0.243 nM in assay [1]; 0.138 nM in assay [4]; 1.13 nM in assay [5]; 0.462 nM in assay [6]; 0.0268 nM in assay [7]. Also, the IC50 turned out to be 3.3 nM in the assay with 人TIGIT-hFc (human) [2] and 1.19 nM with 人TIGIT-hFc (human) [3].
